The text below walks through data of the RNAGym collection of RNA variant scans (doi:10.1093/molbev/msab373).

B1: Azoarcus group I ribozyme (parent)
chain: GUGCCUUGCGCCGGGAAACCACGCAAGGGAUGGUGUCAAAUUCGGCGAAACCUAAGCGCCCGCCCGGGCGUAUGGCAACGCCGAGCCAAGCUUCGGCGCCUGCGCCGAUGAAGGUGUAGAGACUAGACGGCACCCACCUAAGGCAAACGCUAUGGUGAAGGCAUAGUCCAGGGAGUGGCGAAAGUCACACAAACCGG

This data set covers variants of B1. In words: reverse-splicing fitness (ratio to wild type); higher = more active; in vitro selection; Mg2+ level not given. In short, it runs like this:
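An in vitro group I ribozyme library with randomized positions was T7-transcribed and gel-purified. In triplicate, 10 pmol RNA in EPPS pH 7.5 was reacted with 50 pmoles of a 30-nt RNA substrate for 1 h at 37 °C across several added MgCl2 levels (1–48 mM), then stopped with EDTA. Products were reverse transcribed from a substrate-complementary primer, PCR-amplified and sequenced (HiSeq 4000). Fitness is a variant's read proportion after selection over that before, normalised to wild type.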
In the case of C82U A120G A145U C169A U176A, the reverse-splicing fitness was 0.00994.
C82U A120G A145U C169A U176G: the reverse-splicing fitness turned out to be 0.00294.
The figure for C82U A120G A145U C169A U176C is 0.0105.
Take C82U A120G C150U C169U U176A: the reverse-splicing fitness is 0.0237.
With C82U A120G C150U C169U U176G, the reverse-splicing fitness was found to be 0.00509.
C82U A120G C150U C169U U176C: the reverse-splicing fitness turned out to be 0.0185.
Regarding C82U A120U A145C C150A C169G, the reverse-splicing fitness turned out to be 0.00203.
The result for C82U A120U A145C C150A C169A reads 0.00144; that for C82U A120G A145C C150G C169U U176A, 0.0158.
Consider C82U A120G A145C C150G C169U U176G, for which the reverse-splicing fitness came out at 0.00443.
For the variant C82U A120G A145C C150G C169U U176C, the reverse-splicing fitness was 0.0104.
Regarding C82U A120G A145C C169G, the reverse-splicing fitness stood at 0.0218.
Consider C82U A120G A145C C169A, for which the reverse-splicing fitness worked out at 0.014.
As to C82U A120G A145C C169U, the reverse-splicing fitness came to 0.0172.
Consider C82U A120G C150G C169A U176C, for which the reverse-splicing fitness was 0.00979.
As for C82U A120G C150G C169A U176A, the reverse-splicing fitness amounted to 0.00927.
Take C82U A120G C150G C169A U176G: the reverse-splicing fitness was 0.00547.
For the variant C82U A120G A145U C150A C169G, the reverse-splicing fitness turned out to be 0.0077.
With C82U A120G A145U C150A C169A, the reverse-splicing fitness worked out at 0.00815.
For the variant C82U A120G A145U C150A C169U, the reverse-splicing fitness worked out at 0.0072.
Regarding C82U A120C C150U C169U U176C, the reverse-splicing fitness amounted to 0.0177.
Regarding C82U A120C C150U C169U U176A, the reverse-splicing fitness was 0.0176.
The figure for C82U A120C C150U C169U U176G is 0.00448.
Turning to C82U A120G A145G C150U U176A, the reverse-splicing fitness came to 0.00967.
Consider C82U A120G A145G C150U U176G, for which the reverse-splicing fitness was found to be 0.00573.
C82U A120G A145G C150U U176C: the reverse-splicing fitness stood at 0.019.
In the case of C82U A120C C150G, the reverse-splicing fitness was 0.0174.
The figure for C82U A120C C150A is 0.0251.
Turning to C82U A120C C150U, the reverse-splicing fitness is 0.0835.
With C82U A120G C150G C169G, the reverse-splicing fitness is 0.0077.
With C82U A120G C150G C169A, the reverse-splicing fitness came to 0.00923.
With C82U A120G C150G C169U, the reverse-splicing fitness worked out at 0.00921.
As to C82U A120C C150U C169G U176C, the reverse-splicing fitness was 0.0117.
The figure for C82U A120C C150U C169G U176A is 0.0126; for C82U A120C C150U C169G U176G it is 0.0038.
Regarding C82U A120G A145G C169A U176G, the reverse-splicing fitness amounted to 0.00333.
For the variant C82U A120G A145G C169A U176A, the reverse-splicing fitness amounted to 0.0221.
As for C82U A120G A145G C169A U176C, the reverse-splicing fitness is 0.0335.
Consider C82U A120G A145G C150A C169G U176A, for which the reverse-splicing fitness stood at 0.0157.
As to C82U A120G A145G C150A C169G U176C, the reverse-splicing fitness is 0.0255.
Take C82U A120G A145G C150A C169G U176G: the reverse-splicing fitness amounted to 0.00413.
For the variant C82U A120G A145U U176A, the reverse-splicing fitness was found to be 0.0127.
The result for C82U A120G A145U U176G reads 0.00403.
The figure for C82U A120G A145U U176C is 0.0139; for C82U A120G C150A C169G U176C it is 0.0214.
C82U A120G C150A C169G U176A: the reverse-splicing fitness is 0.018.
As to C82U A120G C150A C169G U176G, the reverse-splicing fitness stood at 0.00456.
Consider C82U A120G A145C C150U C169U, for which the reverse-splicing fitness came to 0.00884.
The result for C82U A120G A145C C150U C169G reads 0.00988.
For the variant C82U A120G A145C C150U C169A, the reverse-splicing fitness came out at 0.00913.
For the variant C82U A120G A145G C150G C169A U176A, the reverse-splicing fitness was determined as 0.0129.
Consider C82U A120G A145G C150G C169A U176G, for which the reverse-splicing fitness is 0.00685.
On to C82U A120G A145G C150G C169A U176C, for which the reverse-splicing fitness was 0.0121.
Consider C82U A120G A145G C150A C169U U176G, for which the reverse-splicing fitness is 0.0051.
For the variant C82U A120G A145G C150A C169U U176A, the reverse-splicing fitness was 0.0217.
Regarding C82U A120G A145G C150A C169U U176C, the reverse-splicing fitness is 0.0166.
The result for C82U A120G C150G U176G reads 0.00278.
The result for C82U A120G C150G U176C reads 0.00821; that for C82U A120G C150G U176A, 0.00577.
As for C82U A120U A145C C150A C169A U176G, the reverse-splicing fitness is 0.00165.
Regarding C82U A120U A145C C150A C169A U176A, the reverse-splicing fitness amounted to 0.00177.
For the variant C82U A120U A145C C150A C169A U176C, the reverse-splicing fitness came to 0.00171.
In the case of C82U A120G A145C C150A C169A U176A, the reverse-splicing fitness was determined as 0.0124.
As to C82U A120G A145C C150A C169A U176G, the reverse-splicing fitness is 0.00326.
C82U A120G A145C C150A C169A U176C: the reverse-splicing fitness is 0.0049.
The figure for C82U A120G A145G C150U C169U is 0.0183; for C82U A120G A145G C150U C169G it is 0.0218; for C82U A120G A145G C150U C169A it is 0.0162.
The result for C82U A120G A145U C150U C169U reads 0.0143; that for C82U A120G A145U C150U C169A, 0.014; that for C82U A120G A145U C150U C169G, 0.0171.
In the case of C82U A120C A145U C169U U176G, the reverse-splicing fitness amounted to 0.00405.
Regarding C82U A120C A145U C169U U176A, the reverse-splicing fitness was determined as 0.0169.
As to C82U A120C A145U C169U U176C, the reverse-splicing fitness turned out to be 0.0155.
For the variant C82U A120G C150U U176A, the reverse-splicing fitness was found to be 0.0106.
For the variant C82U A120G C150U U176C, the reverse-splicing fitness turned out to be 0.0148.
With C82U A120G C150U U176G, the reverse-splicing fitness worked out at 0.00504.
For C82U A120G A145C C150A C169U U176G, the reverse-splicing fitness came out at 0.0041.
In the case of C82U A120G A145C C150A C169U U176C, the reverse-splicing fitness amounted to 0.00972.
C82U A120G A145C C150A C169U U176A: the reverse-splicing fitness is 0.0218.
On to C82U A120G A145G C150A U176A, for which the reverse-splicing fitness is 0.0092.
The result for C82U A120G A145G C150A U176G reads 0.00584.
Consider C82U A120G A145G C150A U176C, for which the reverse-splicing fitness came to 0.0182.
